Experimental data as given in paper PMC5988664.

Molecular target: endothelin-converting enzyme 1 (Ece1), monomer (mouse (endogenous in NMuMG and C2C12))
Experiment: cross-linking

Chain of endothelin-converting enzyme 1 (Ece1), monomer (Q4PZA2 whole entry): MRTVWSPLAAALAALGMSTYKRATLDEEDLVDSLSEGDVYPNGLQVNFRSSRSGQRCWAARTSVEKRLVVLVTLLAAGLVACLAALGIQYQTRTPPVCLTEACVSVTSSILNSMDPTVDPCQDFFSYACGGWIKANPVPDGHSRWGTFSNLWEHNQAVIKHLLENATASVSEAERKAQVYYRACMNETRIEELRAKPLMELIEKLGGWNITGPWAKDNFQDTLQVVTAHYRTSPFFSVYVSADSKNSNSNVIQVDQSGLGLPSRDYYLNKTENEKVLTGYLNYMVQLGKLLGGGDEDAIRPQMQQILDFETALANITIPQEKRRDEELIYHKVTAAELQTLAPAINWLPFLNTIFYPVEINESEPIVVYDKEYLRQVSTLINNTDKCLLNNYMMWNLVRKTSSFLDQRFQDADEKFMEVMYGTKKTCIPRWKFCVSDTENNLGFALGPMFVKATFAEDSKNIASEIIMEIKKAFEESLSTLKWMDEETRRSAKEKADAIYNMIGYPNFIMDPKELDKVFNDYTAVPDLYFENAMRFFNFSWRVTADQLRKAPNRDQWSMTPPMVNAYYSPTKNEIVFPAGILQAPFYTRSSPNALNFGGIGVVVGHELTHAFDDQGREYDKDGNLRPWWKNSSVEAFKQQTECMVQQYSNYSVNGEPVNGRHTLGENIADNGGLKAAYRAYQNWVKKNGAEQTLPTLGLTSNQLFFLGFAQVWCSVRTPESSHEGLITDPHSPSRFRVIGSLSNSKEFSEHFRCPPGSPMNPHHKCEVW

stoichiometry N: 2
Substance: endothelin-converting enzyme 1 (Ece1), monomer
